Measurements as given in paper PMC7407159.

Biological target: T1, histidine tagged full length homo sapiens mitofusin 1 (hsMfn1) (human), Q8IWA4
T1 chain: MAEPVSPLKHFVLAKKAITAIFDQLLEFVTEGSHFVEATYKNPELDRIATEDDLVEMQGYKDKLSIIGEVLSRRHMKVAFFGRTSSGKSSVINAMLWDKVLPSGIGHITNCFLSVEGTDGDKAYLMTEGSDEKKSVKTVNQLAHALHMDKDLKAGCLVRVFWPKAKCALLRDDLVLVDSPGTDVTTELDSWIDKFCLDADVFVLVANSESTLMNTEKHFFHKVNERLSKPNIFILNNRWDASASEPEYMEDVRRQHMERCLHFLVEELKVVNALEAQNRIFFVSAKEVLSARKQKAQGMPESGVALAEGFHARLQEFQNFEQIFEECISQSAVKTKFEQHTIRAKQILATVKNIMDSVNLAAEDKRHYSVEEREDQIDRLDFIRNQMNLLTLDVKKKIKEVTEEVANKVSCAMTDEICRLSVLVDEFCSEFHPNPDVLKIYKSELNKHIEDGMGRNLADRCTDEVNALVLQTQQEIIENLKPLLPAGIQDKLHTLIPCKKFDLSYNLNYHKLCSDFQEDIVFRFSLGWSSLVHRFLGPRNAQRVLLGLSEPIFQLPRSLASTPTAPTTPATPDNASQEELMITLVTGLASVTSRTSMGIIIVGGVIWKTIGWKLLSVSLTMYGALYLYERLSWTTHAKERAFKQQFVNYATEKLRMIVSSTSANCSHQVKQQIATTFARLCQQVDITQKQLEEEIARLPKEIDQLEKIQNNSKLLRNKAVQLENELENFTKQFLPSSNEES
Experiment: vesicle adhesion (shape of adhered GUV doublets by confocal microscopy), adhesion strength fitted to a cooperative binding model; His-Mfn1 (detergent resistant fraction of Mfn1-IMVs) bound by its histidine tag to POPC/DOGS-NTA GUVs with 10, 15, 20 and 25 mol% DOGS-NTA; 10 mM GDP, 2.5 mM …; 22 °C; Eadh against [NTA] fitted to Equation (6); two-dimensional binding equilibrium constant for planar membranes, Mfn1 with …
Conditions: remark: other sources report otherwise

B1: histidine tagged full length homo sapiens mitofusin 1 (hsMfn1), Q8IWA4 1-741 (natural protein)
chain: MAEPVSPLKHFVLAKKAITAIFDQLLEFVTEGSHFVEATYKNPELDRIATEDDLVEMQGYKDKLSIIGEVLSRRHMKVAFFGRTSSGKSSVINAMLWDKVLPSGIGHITNCFLSVEGTDGDKAYLMTEGSDEKKSVKTVNQLAHALHMDKDLKAGCLVRVFWPKAKCALLRDDLVLVDSPGTDVTTELDSWIDKFCLDADVFVLVANSESTLMNTEKHFFHKVNERLSKPNIFILNNRWDASASEPEYMEDVRRQHMERCLHFLVEELKVVNALEAQNRIFFVSAKEVLSARKQKAQGMPESGVALAEGFHARLQEFQNFEQIFEECISQSAVKTKFEQHTIRAKQILATVKNIMDSVNLAAEDKRHYSVEEREDQIDRLDFIRNQMNLLTLDVKKKIKEVTEEVANKVSCAMTDEICRLSVLVDEFCSEFHPNPDVLKIYKSELNKHIEDGMGRNLADRCTDEVNALVLQTQQEIIENLKPLLPAGIQDKLHTLIPCKKFDLSYNLNYHKLCSDFQEDIVFRFSLGWSSLVHRFLGPRNAQRVLLGLSEPIFQLPRSLASTPTAPTTPATPDNASQEELMITLVTGLASVTSRTSMGIIIVGGVIWKTIGWKLLSVSLTMYGALYLYERLSWTTHAKERAFKQQFVNYATEKLRMIVSSTSANCSHQVKQQIATTFARLCQQVDITQKQLEEEIARLPKEIDQLEKIQNNSKLLRNKAVQLENELENFTKQFLPSSNEES
B1 was tested. Which two-dimensional binding equilibrium constant for planar membranes (K2D' of Equation 6, printed as KD') (nm^2 per molecule) did it give?
The two-dimensional binding equilibrium constant for planar membranes (K2D' of Equation 6, printed as KD') (nm^2 per molecule) was 0.1.
